T1: Lon (wild type) (Caulobacter crescentus, UniProt P0CAW0 1-799)
T1 sequence: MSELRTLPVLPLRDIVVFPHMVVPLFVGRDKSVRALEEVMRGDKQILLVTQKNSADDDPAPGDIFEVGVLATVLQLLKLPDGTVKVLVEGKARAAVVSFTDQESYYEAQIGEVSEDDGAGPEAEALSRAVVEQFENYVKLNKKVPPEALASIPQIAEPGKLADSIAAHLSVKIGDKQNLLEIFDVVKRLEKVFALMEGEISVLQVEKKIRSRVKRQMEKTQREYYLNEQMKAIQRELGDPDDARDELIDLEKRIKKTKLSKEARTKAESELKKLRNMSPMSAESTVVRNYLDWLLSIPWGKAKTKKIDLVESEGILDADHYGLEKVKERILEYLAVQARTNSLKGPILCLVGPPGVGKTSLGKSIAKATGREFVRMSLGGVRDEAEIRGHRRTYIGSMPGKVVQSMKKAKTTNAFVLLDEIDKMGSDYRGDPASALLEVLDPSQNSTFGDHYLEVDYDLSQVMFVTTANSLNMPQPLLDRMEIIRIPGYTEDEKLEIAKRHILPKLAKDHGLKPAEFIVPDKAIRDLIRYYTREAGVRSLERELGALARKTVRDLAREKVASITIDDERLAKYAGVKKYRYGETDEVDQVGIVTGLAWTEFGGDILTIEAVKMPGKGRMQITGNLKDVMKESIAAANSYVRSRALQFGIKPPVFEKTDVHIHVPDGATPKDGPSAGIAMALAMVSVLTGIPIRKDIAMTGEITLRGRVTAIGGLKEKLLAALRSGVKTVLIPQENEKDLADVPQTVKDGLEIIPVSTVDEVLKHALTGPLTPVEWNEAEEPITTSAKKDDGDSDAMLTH

T2: Lon4A (Caulobacter crescentus, UniProt P0CAW0 1-799, K301A;K303A;K305A;K306A)
T2 sequence: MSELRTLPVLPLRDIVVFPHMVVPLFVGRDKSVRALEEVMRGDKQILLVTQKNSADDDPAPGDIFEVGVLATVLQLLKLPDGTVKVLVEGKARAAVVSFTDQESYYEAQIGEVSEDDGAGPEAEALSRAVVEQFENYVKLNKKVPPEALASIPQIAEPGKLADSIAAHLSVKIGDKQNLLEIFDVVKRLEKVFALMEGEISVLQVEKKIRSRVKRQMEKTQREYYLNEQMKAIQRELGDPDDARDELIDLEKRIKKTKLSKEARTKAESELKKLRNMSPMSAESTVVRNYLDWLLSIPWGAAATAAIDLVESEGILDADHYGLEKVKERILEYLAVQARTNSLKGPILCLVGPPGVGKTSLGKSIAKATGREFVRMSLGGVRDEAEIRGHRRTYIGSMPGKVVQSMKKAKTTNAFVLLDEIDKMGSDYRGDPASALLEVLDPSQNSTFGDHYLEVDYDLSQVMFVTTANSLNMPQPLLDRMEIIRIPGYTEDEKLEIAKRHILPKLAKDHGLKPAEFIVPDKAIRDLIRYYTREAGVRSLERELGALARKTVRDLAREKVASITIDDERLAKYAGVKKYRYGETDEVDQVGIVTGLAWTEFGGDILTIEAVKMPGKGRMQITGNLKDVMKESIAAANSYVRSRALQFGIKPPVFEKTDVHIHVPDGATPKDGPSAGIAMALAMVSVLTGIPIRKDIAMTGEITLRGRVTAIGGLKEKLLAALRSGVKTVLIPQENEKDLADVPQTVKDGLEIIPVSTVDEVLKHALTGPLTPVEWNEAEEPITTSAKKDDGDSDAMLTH

T3: Lon4E (Caulobacter crescentus, UniProt P0CAW0 1-799, K301E;K303E;K305E;K306E)
T3 sequence: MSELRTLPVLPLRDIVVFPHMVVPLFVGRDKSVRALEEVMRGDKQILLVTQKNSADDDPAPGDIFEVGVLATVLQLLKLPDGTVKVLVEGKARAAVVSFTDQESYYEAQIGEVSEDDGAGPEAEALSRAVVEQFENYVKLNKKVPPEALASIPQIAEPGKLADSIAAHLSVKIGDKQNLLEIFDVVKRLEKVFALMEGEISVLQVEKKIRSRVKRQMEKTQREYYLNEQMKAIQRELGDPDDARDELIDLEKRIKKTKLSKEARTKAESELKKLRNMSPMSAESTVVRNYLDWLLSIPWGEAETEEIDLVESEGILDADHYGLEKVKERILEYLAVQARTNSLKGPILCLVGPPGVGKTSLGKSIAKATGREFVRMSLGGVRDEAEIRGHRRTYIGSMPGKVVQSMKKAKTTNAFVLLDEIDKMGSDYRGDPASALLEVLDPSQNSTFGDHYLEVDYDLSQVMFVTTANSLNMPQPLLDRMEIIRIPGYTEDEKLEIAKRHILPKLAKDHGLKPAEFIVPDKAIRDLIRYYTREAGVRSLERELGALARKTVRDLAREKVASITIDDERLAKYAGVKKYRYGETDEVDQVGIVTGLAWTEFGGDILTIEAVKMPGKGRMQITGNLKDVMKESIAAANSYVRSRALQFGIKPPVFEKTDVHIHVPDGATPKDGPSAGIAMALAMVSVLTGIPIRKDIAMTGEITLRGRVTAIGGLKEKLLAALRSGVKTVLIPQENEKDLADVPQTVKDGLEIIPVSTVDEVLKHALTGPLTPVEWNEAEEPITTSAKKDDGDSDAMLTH


How the values were obtained:
Lon (wild type) = target: T1, Lon (wild type); assay: mass photometry; 200 nM Lon monomer; shift to HMW, median 592 kDa vs 515 kDa, consistent with one ssDNA per protomer; FP: 25 mM HEPES pH 7.5, 10 mM MgCl2, 100 mM KCl, 0.05% Tween-20, 30 C, 0.1 uM Lon (hexamer), 25 nM DNA; mass photometry in TK buffer, 200 nM Lon; conditions: protein: recombinant; chain copies: 6
Lon4A = target: T2, Lon4A; assay: fluorescence polarization; 0.1 uM Lon4A, 25 nM FAM-ssDNA; FP: 25 mM HEPES pH 7.5, 10 mM MgCl2, 100 mM KCl, 0.05% Tween-20, 30 C, 0.1 uM Lon (hexamer), 25 nM DNA; mass photometry in TK buffer, 200 nM Lon; conditions: protein: recombinant; chain copies: 6; label: FAM (printed at 5' side)
Lon4E = target: T3, Lon4E; assay: fluorescence polarization; 0.1 uM Lon4E, 25 nM FAM-ssDNA; FP: 25 mM HEPES pH 7.5, 10 mM MgCl2, 100 mM KCl, 0.05% Tween-20, 30 C, 0.1 uM Lon (hexamer), 25 nM DNA; mass photometry in TK buffer, 200 nM Lon; conditions: protein: recombinant; chain copies: 6; label: FAM (printed at 5' side)

Binder	binding result (Lon (wild type))	binding result (Lon4A)	binding result (Lon4E)
TCGATTCTCGAGTTAGTCGTCTTCTGGTGCCGGAAA (ssDNA) [OPC698-Stim]	binds		
AACGGATGATCCACAGGAGAGTCTGGCGCAGGGCGAGAG (ssDNA) [FAM-ssDNA (G1Box top strand)]		no binding	no binding
